Experimental data: the supplement of paper PMC7877785
± gives the uncertainty stated by the source.

Assay: self-splicing fitness, log relative to wild type (ln ratio); higher = more splicing; Tetrahymena group I intron in knt gene, E. coli kanamycin selection, DiMSum; sequences stand for … in CUCUCU…GGAGGGAAAAGUUAUCAGGCAUGCACCUGGUAGCUAGUCUUUAAACCAAUAGAUUGCAUCGGUUUAAAAGGCAAGACCGUCAAAUUGCGGGAAAGGGGUCAACAGCCGUUCAGUACCAAGUCUCAGGGGAAACUUUGAGAUGGCCUUGCAAAGGGUAUGGUAAUAAGCUGACGGACAUGGUCCUAACCACGCAGCCAAGUCCUAAGUCAACAGAUCUUCUGUUGAUAUGGAUGCAGUUCACAGACUAAAUGUCGGUCGGGGAAGAUGUAUUCUUCUCAUAAGAUAUAGUCGGACCUCUCCUUAAUGGGAGCUAGCGGAUGAAGUGAUGCAACACUGGAGCCGCUGGGAACUAAUUUGUAUGCGAAAGUAUAUUGAUUAGUUUUGGAGUACUCGUGGUCG
In short: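 A randomised library covering all eight P1ex-region intron nucleotides was built with the intron in the knt kanamycin-resistance gene on pET-22b(+) and held in E. coli BL21(DE3). Cells were grown overnight at 37°C or 30°C on LB agar, with or without 25 μg/mL kanamycin, plus 100 μg/mL carbenicillin, 50 μM IPTG and 0.2% rhamnose, and pooled colonies were amplicon-sequenced on an Illumina HiSeq 2500. DiMSum fitness is the error-weighted combination of wild-type-normalised replicate fold changes, kanamycin versus none.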

Row | Sequence | self-splicing fitness (ln) (30 °C) | self-splicing fitness (ln) (37 °C)
1 | AAAAAGCAAUAUUACGUAAG | -1.08 ± 0.061 | -0.0629 ± 0.081
2 | UCCAAGCAAUAUUACGGGGG | -3.91 ± 0.2 | -3.41 ± 0.24
3 | GCUAAGCAAUAUUACGAUGA | -0.837 ± 0.09 | -0.253 ± 0.1
4 | UUCAAGCAAUAUUACGGCUG | -2.62 ± 0.15 | -1.52 ± 0.2
5 | UACUAGCAAUAUUACGUUUA | -2.47 ± 0.16 | -1.05 ± 0.12
6 | UGUAAGCAAUAUUACGCGAU | -3.35 ± 0.29 | -1.25 ± 0.21
7 | CUUAAGCAAUAUUACGUGGU | -4 ± 0.21 | -2.35 ± 0.2
8 | UUCUAGCAAUAUUACGAAUU | -2.96 ± 0.23 | -1.58 ± 0.18
9 | UUAUAGCAAUAUUACGUGGG | -3.41 ± 0.26 | -2.15 ± 0.23
10 | UCCCAGCAAUAUUACGCACG | -3.4 ± 0.17 | -2.6 ± 0.23
11 | GUGUAGCAAUAUUACGCUCU | -1.72 ± 0.23 | -0.839 ± 0.22
12 | AUUGAGCAAUAUUACGGGCG | – | -2.13 ± 0.34
13 | CAUCAGCAAUAUUACGUGGU | -3.2 ± 0.096 | -2.07 ± 0.12
14 | CGCGAGCAAUAUUACGACUG | 0.265 ± 0.17 | 0.0174 ± 0.17
15 | AUAUAGCAAUAUUACGCACA | -0.73 ± 0.19 | -0.28 ± 0.23
16 | ACCUAGCAAUAUUACGUUGC | -2.21 ± 0.1 | -1.56 ± 0.14
17 | UUAAAGCAAUAUUACGUUAG | -0.59 ± 0.095 | -0.125 ± 0.097
18 | GGCGAGCAAUAUUACGGCAG | – | -1.94 ± 0.36
19 | UCCCAGCAAUAUUACGUCAC | -4.1 ± 0.33 | -3.23 ± 0.33
20 | UAAAAGCAAUAUUACGGUGG | -2.08 ± 0.088 | -1.43 ± 0.089
21 | CUCUAGCAAUAUUACGUCCG | -2.91 ± 0.18 | -0.955 ± 0.14
22 | ACAUAGCAAUAUUACGCUCG | -0.317 ± 0.091 | 0.247 ± 0.12
23 | AUUAAGCAAUAUUACGGUUU | -0.783 ± 0.07 | 0.254 ± 0.12
24 | CCGCAGCAAUAUUACGGGCA | -2.72 ± 0.17 | -2.43 ± 0.18
25 | UGAGAGCAAUAUUACGUGUU | -3.49 ± 0.25 | -1.36 ± 0.14

Row | Sequence | self-splicing fitness (ln) (30 °C) | self-splicing fitness (ln) (37 °C)
26 | UGUAAGCAAUAUUACGCCAG | -1.82 ± 0.34 | -1.07 ± 0.33
27 | GCAGAGCAAUAUUACGGACC | -3.65 ± 0.37 | -0.0809 ± 0.29
28 | UACGAGCAAUAUUACGGUAG | -2.97 ± 0.14 | -2.35 ± 0.17
29 | UCUUAGCAAUAUUACGUAGU | -2.27 ± 0.13 | -1.35 ± 0.14
30 | CUUCAGCAAUAUUACGGCAA | -2.87 ± 0.48 | -1.92 ± 0.41
31 | UCACAGCAAUAUUACGCACC | -2.35 ± 0.3 | –
32 | GGCGAGCAAUAUUACGAUGC | -1.04 ± 0.16 | -1.43 ± 0.26
33 | CAGUAGCAAUAUUACGGGAA | -2.93 ± 0.26 | -2.44 ± 0.25
34 | UACUAGCAAUAUUACGGUGC | -3.29 ± 0.26 | -2.04 ± 0.31
35 | CCCUAGCAAUAUUACGGUCC | -3.45 ± 0.22 | -1.51 ± 0.28
36 | GCCUAGCAAUAUUACGCUCG | -2.7 ± 0.2 | -2.06 ± 0.3
37 | GCCAAGCAAUAUUACGAACA | -2.36 ± 0.16 | -2.2 ± 0.17
38 | GAUGAGCAAUAUUACGUUCC | -3.45 ± 0.49 | -2.23 ± 0.42
39 | ACGUAGCAAUAUUACGCUUA | -1.49 ± 0.11 | -0.764 ± 0.12
40 | ACCUAGCAAUAUUACGGUCA | -1.74 ± 0.091 | -0.306 ± 0.082
41 | UCCUAGCAAUAUUACGGGCA | -0.22 ± 0.085 | 0.2 ± 0.097
42 | UACAAGCAAUAUUACGGACG | -0.321 ± 0.075 | 0.44 ± 0.097
43 | UCUCAGCAAUAUUACGGGGG | -3.53 ± 0.27 | -2.02 ± 0.2
44 | ACGUAGCAAUAUUACGUGCA | -2.38 ± 0.17 | -0.124 ± 0.096
45 | AGGAAGCAAUAUUACGUCGU | -2.6 ± 0.14 | -0.803 ± 0.12
46 | UAUUAGCAAUAUUACGGGGG | -4.15 ± 0.46 | -2.75 ± 0.34
47 | UGUGAGCAAUAUUACGGGUA | -2.92 ± 0.2 | -2.86 ± 0.31
48 | GGAAAGCAAUAUUACGUCGA | -1.84 ± 0.092 | -0.528 ± 0.12
49 | GUAUAGCAAUAUUACGCGAA | -2.01 ± 0.36 | -0.808 ± 0.23
50 | UAAGAGCAAUAUUACGACGA | -1.72 ± 0.19 | -1.61 ± 0.21

Row | Sequence | self-splicing fitness (ln) (30 °C) | self-splicing fitness (ln) (37 °C)
51 | GUAGAGCAAUAUUACGAGUG | -1.59 ± 0.18 | -2.1 ± 0.21
52 | AAGUAGCAAUAUUACGGAGU | -2.54 ± 0.2 | -1.9 ± 0.22
53 | UGGGAGCAAUAUUACGAUCC | -1.41 ± 0.39 | –
54 | CACAAGCAAUAUUACGGCUC | -2.56 ± 0.18 | -1.75 ± 0.16
55 | GCGGAGCAAUAUUACGGGCG | -1.83 ± 0.13 | -1.21 ± 0.17
56 | AGGAAGCAAUAUUACGAUGU | -1.51 ± 0.087 | -0.634 ± 0.1
57 | AUCGAGCAAUAUUACGGUCC | -3.46 ± 0.46 | –
58 | GUCCAGCAAUAUUACGGUGC | -0.903 ± 0.059 | -0.726 ± 0.071
59 | GGAUAGCAAUAUUACGCAAA | -2.14 ± 0.29 | –
60 | GUAGAGCAAUAUUACGGAGA | -2.58 ± 0.3 | –
61 | CAAGAGCAAUAUUACGAAUG | -2.34 ± 0.09 | -1.79 ± 0.14
62 | AGCCAGCAAUAUUACGAGUA | -3.06 ± 0.22 | -1.5 ± 0.16
63 | AUUGAGCAAUAUUACGUCUG | -3.22 ± 0.21 | -3 ± 0.26
64 | GCACAGCAAUAUUACGGCAG | -3.39 ± 0.2 | -1.4 ± 0.16
65 | CUAAAGCAAUAUUACGGGGA | -3.4 ± 0.16 | -1.96 ± 0.16
66 | UGUGAGCAAUAUUACGACGU | -3.72 ± 0.18 | -2.29 ± 0.16
67 | CGUCAGCAAUAUUACGACUU | -0.191 ± 0.069 | 0.132 ± 0.08
68 | CGGGAGCAAUAUUACGAUCC | -3.35 ± 0.21 | -1.68 ± 0.22
69 | UCAGAGCAAUAUUACGGGUU | -3.76 ± 0.46 | -1.58 ± 0.26
70 | UAGGAGCAAUAUUACGUUCC | -2.97 ± 0.4 | –
71 | CAGAAGCAAUAUUACGCAAA | -3.57 ± 0.35 | -1.81 ± 0.26
72 | AAGUAGCAAUAUUACGGACC | – | -0.466 ± 0.37
73 | UCUAAGCAAUAUUACGUUAC | -2.8 ± 0.18 | -2.09 ± 0.26
74 | AAUCAGCAAUAUUACGCCAC | -3.91 ± 0.21 | -3.78 ± 0.39
75 | AGAUAGCAAUAUUACGAUGG | -2.2 ± 0.14 | -3.07 ± 0.22

Row | Sequence | self-splicing fitness (ln) (30 °C) | self-splicing fitness (ln) (37 °C)
76 | AUCGAGCAAUAUUACGACCA | -2.06 ± 0.22 | -0.741 ± 0.28
77 | CAAUAGCAAUAUUACGCCUA | -2.01 ± 0.22 | -1.74 ± 0.18
78 | AGCCAGCAAUAUUACGCUGC | -3.09 ± 0.34 | -2.59 ± 0.26
79 | GCACAGCAAUAUUACGCACU | -0.263 ± 0.06 | 0.324 ± 0.077
80 | GAAGAGCAAUAUUACGGAGG | -2.48 ± 0.2 | -2.01 ± 0.31
81 | AGCAAGCAAUAUUACGUGAA | -2.21 ± 0.068 | -1.95 ± 0.11
82 | ACUCAGCAAUAUUACGCAGC | -2.14 ± 0.079 | -0.903 ± 0.093
83 | AGUGAGCAAUAUUACGCUCC | -1.69 ± 0.45 | –
84 | GAUGAGCAAUAUUACGGUAU | -2.71 ± 0.18 | -1.28 ± 0.14
85 | GAAGAGCAAUAUUACGUCAC | – | -2.13 ± 0.23
86 | UAUUAGCAAUAUUACGCCAC | – | -0.751 ± 0.48
87 | GACCAGCAAUAUUACGCGCG | -0.501 ± 0.061 | 0.0713 ± 0.078
88 | CAGCAGCAAUAUUACGGGAU | -4.61 ± 0.22 | -2.35 ± 0.12
89 | GGAAAGCAAUAUUACGGGAG | -3.54 ± 0.28 | -1.83 ± 0.19
90 | AAGCAGCAAUAUUACGAAUA | -2.44 ± 0.16 | -1.21 ± 0.12
91 | GCAGAGCAAUAUUACGGGGA | -3.65 ± 0.37 | -2.84 ± 0.36
92 | AUAUAGCAAUAUUACGCGUU | -1.67 ± 0.2 | -1.61 ± 0.24
93 | CUUCAGCAAUAUUACGCGAG | -3.15 ± 0.2 | -1.91 ± 0.2
94 | GAGGAGCAAUAUUACGAGAA | -1.98 ± 0.41 | -2.44 ± 0.33
95 | GUAUAGCAAUAUUACGACAC | 0.143 ± 0.091 | 0.241 ± 0.12
96 | CGCAAGCAAUAUUACGCCUC | -3.64 ± 0.22 | -1.78 ± 0.15
97 | UUAUAGCAAUAUUACGUGAA | -1.91 ± 0.18 | -0.849 ± 0.17
98 | UCGUAGCAAUAUUACGUCAA | -2.24 ± 0.23 | -1.53 ± 0.15
99 | CGGAAGCAAUAUUACGAAGA | -3.45 ± 0.4 | -3.08 ± 0.47
